# Reference: the DeepSol protein solubility set
# Assay: soluble on expression in E. coli; label from the status in PepcDB or PDB records
row,Sequence,soluble on expression in E. coli
1,MGSDKIHHHHHHMATPEFKYQKPFPMGDDTTEYYLLTKEYVSVDKFGDHDVLKVEPEALRLLARTAFHDIAFYLRPEHQQQVARILSDPEASENDKFVALTFLRNAEVSAKGQLPFCQDTGTAIILGKKGQQVWTGGHDEEQLSHGVYDTYTQENLRYSQNAPLDMYKEVNTGCNLPAQIDLMAVDGMEYDFLCIAKGGGSANKTYLYQETKALLNPKTLVNFLVDKMSSLGTAACPPYHIAFVIGGTSAETNLKTVKLASAKYYDNLPTSGNEGGRAFRDVELEKEVLEAAYHLGLGAQFGGKYFAHDVRIIRLPRHGASCPVGMGVSCSADRNIKAKINKDGIWIEKMETNPTRLIPESMREGTEGTVVKVDLNRPMPEILRELSQYPVSTRLSLSGTIIVGRDIAHAKLKERIDRGEGLPDYIKNHPIYYAGPAKTPKGMPSGSFGPTTAGRMDSYVDLFQSHGGSMVMIAKGNRSQQVTDACKKYGGFYLGSVGGPAAILAQDSIKKVECLEYPELGMEAIWKIEVEDFPAFILVDDKGNDFFTQIREKCKGCALH,not soluble
2,RKRRRGYDVDEQGKIVRGKGTVSSNYDNYVFDIWKQYYPQPVEIKHDHVLDHYDIHEELGTGAFGVVHRVTERATGNNFAAKFVMTPHESDKETVRKEIQTMSVLRHPTLVNLHDAFEDDNEMVMIYEFMSGGELFEKVADEHNKMSEDEAVEYMRQVCKGLCHMHENNYVHLDLKPENIMFTTKRSNELKLIDFGLTAHLDPKQSVKVTTGTAEFAAPEVAEGKPVGYYTDMWSVGVLSYILLSGLSPFGGENDDETLRNVKSCDWNMDDSAFSGISEDGKDFIRKLLLADPNTRMTIHQALEHPWLTPGNAPGRDSQIPSSRYTKIRDSIKTKYDAWPEPLPPLGRISNYSSLRKHRPQEYSIRDAFWDRSEAQPRFIVKPYGTEVGEGQSANFYCRVIASSPPVVTWHKDDRELKQSVKYMKRYNGNDYGLTINRVKGDDKGEYTVRAKNSYGTKEEIVFLNVTRHSEPLKFEPLEPMKKAPSPPRVE,soluble
3,MYKIGIDVGGTNTDAVILDHQLNLIHSVKVPTTDDIQTGIAGALNKVLAESAVDPTKVTHAMLGTTQCTNAIVERKKLAKVGVLRLGYPATASVLPYTAWPKDLVATLSETYALAHGGYEYDGQPLTALDEEELRGILASWRGEVEAIAVIGVFSSLKNDQELFVQALAKEVL,not soluble
4,MSLSASQTSDVPTLLVKIFGKDRPGITAGLFDTLAAYSVDVVDIEQVVTRGRIVLCALVTEPPRGLEGDLRATVHSWAESLKLQAEIISGIGDNRPRGFGRSLVTVLGHPLTAEATAAIAARITESGSNIDRIFRLAKYPVTAVEFAVSGVETEPLRTALATEAAALGVDIAVVAAGLHRRAQRLVVMDVDSTLIQDEVIELFAAHAGCEDEVAEVTAAAMRGELDFEQSLHARVALLAGLDASVVDKVRAEVRLTPGARTLIRTLKRLGYQVGVVSGGFTQVTDALQEQLGLDFAQANTLEIVDGRLTGRVTGEIVDRAGKARLLRRFAAAAGVPLSQTVAIGDGANDLDMLNAAGLGVAFNAKPVVREAAHTAVNVPFLDTVLYLLGITREEVEAADTLADDLGDGPGREGHHHHHH,soluble
5,MTDSTIRIAIVGAGGRMGRQLIQAVTQMEGVVLGAAIERKGSTLVGSDAGELAGVGLLNVIVGDDLSQLTDNFDVLIDFTRPEGTLEHLAICRQHRKAMVIGTTGFDEAGKAAISEAAADIGIVFAANFSVGVNVVLKLLEKAAKVMGDYTDIEIIEAHHRHKVDAPSGTALAMGEAIADAMGRSLKDCAVYSREGYTGERKPGTIGFATVRAGDIVGEHTAMFADIGERVEITHKATSRMTFAHGAVKSAIWLGKHDNGLFDMRDVLNLNEL,soluble
6,MAHHHHHHMTLKEAIDRDGVPATSSSKQRRLMDIHVTAYPGLVNQHMLPKHNTAVNDFSSIDPLQYRKAHTVRNNNAASYSEKEENVLDMLTTNQCTNRMTRLGMQLREERAKNPKGMPSISSLAPRGYRSRFLSPSFDERSTYRWDYCQWEPDGFHDTVRRELLAAYRDDWTEDEKADVDISMKIPYLTMAVSSDRLKDKATIYRKDFMEDATQADYRSLSYKTNLEDLGTSYAYSAYSIDDPRRKVLFDASVAALKTPHSVLEKTYSPRNSFLEKSLSTKQQSSAREELDRLRTMRREALHLSAAKRSAAESTDDGTTTKTVVIPGIKGSGYRRVPKGNDSYVCLSRDHFCYQQVDNF,not soluble
7,GAHVSRVEKLPKDYQIVYKEIQKYLFKVGPVELNEGIGLLSEILGFFEEGAAAGKGVLDVTGTDVAAFCDALIGDSKTYADLYQESIQQHVDKAMKNMKD,soluble
8,MAGIAMKLAKDREAAEGLGSHERAIKYLNQDYETLRNECLEAGALFQDPAFPPVSHSLGFKELGPNSSKTYGIKWKRPTELLSNPQFIVDGATRTDICQGALGDSWLLAAIASLTLNETILHRVVPYGQSFQEGYAGIFHFQLWQFGEWVDVVVDDLLPTKDGKLVFVHSAQGNEFWSALLEKAYAKVNGSYEALSGGCTSEAFEDFTGGVTEWYDLQKAPSDLYQIILKALERGSLLGCSINISDIRDLEAITFKNLVRGHAYSVTDAKQVTYQGQRVNLIRMRNPWGEVEWKGPWSDNSYEWNKVDPYEREQLRVKMEDGEFWMSFRDFIREFTKLEICNLTPDALKSRTLRNWNTTFYEGTWRRGSTAGGCRNYPATFWVNPQFKIRLEEVDDADDYDSRESGCSFLLALMQKHRRRERRFGRDMETIGFAVYQVPRELAGQPVHLKRDFFLANASRAQSEHFINLREVSNRIRLPPGEYIVVPSTFEPNKEGDFLLRFFSEKKAGTQELDDQIQANLPDEKVLSEEEIDDNFKTLFSKLAGDDMEISVKELQTILNRIISKHKDLRTNGFSLESCRSMVNLMDRDGNGKLGLVEFNILWNRIRNYLTIFRKFDLDKSGSMSAYEMRMAIEAAGFKLPCQLHQVIVARFADDELIIDFDNFVRCLVRLEILFKIFKQLDPENTGTIQLDLISWLSFSVLGKLAAAIEHHHHHHMHYSNIEANESEEERQFRKLFVQLAGDDMEVSATELMNILNKVVTRHPDLKTDGFGIDTCRSMVAVMDSDTTGKLGFEEFKYLWNNIKKWQGIYKRFETDRSGTIGSNELPGAFEAAGFHLNQHIYSMIIRRYSDETGNMDFDNFISCLVRLDAMFRAFRSLDKNGTGQIQVNIQEWLQLTMYS,soluble
9,MAHHHHHHMSGPPKQCYYELLQVDRKASSEEIRQAYKKQALIHHPDKNYSNEQSTIEKFKDIQNAYAVLSDPDERAWYDAHRESILNGEDADSSQHEVNLYCYFTSRCFDGFDDNEGGFYSVYRKVFDQLIEDESEYSSNAKTWPRFGDSATSWSSVSKFYSHWRNFSSCKTFAWKDEYKVNEIPDRASRRMAERINQKLRTSAKKEYVQIVQGLTRFVHRRDPRVAAELTRQEEERRLKEEEREKRELEWAKNRREANEKLWAEAAEKEAEEERARIERGEAPDSCTLDLLYEKQRQCEEARKVKGGTNCGFAMLEDEHEDNLPEKKRSCPACKKQFKTDAQYKEHVNSSKHKAKLRQLSAKGVDIETLMNEEKDISTCV,soluble
10,MDTPNKDDSIIRFSVSLQQNLLDELDNRIIKNGYSSRSELVRDMIREKLVEDNWAEDNPNDESKIAVLVVIYDGGQRELNQRMIDIQHASGTHVLCTTHIHMDEHNCLETIILQGNSFEIQRLQLEIGGLRGVKFAKLTKASSFEYNE,soluble
11,MGSDKIHHHHHHMQCMIDAMRSIVSLISHATVALAGSLAVAGCSLSPQPDHDTAATTPERLEARIHKVHRFDPQAFTQGLELDGDRLLVSTGFYGESGMFSMEVGNAPQQRTPLDPELFGEGITKTGDHIWQLTWRDGIAFKRDATTFQQLGTVSYEGEGWGLCHFDDRVIMSNGSDELIIRDPESFDERSRIRVTNQGNGVSNLNELECVPNDPATGKDTIYANVFLSTDIMRIDATTGAVTGIIDASSIPNNAVADTNNVLNGIAWIPSSDRFYITGKRWPDLYEVTFVSKMSNHGQS,not soluble
12,MAAYYRWKSFEENEDRPEKPRRYGVTEMRGPHYSVLSQNLLQEIFESMGQFVDGLKFSGGSNSLIPKSFIKQAIEMAHEHGVYVSTGDWAEHMLRSGPSAFKDYVEECKQLGFDTIELNANLLEVPEETLLRYVRLIKNGGLRAKPMFAVKFNKSDIPGRNRAFGSYVVPEPRSSEFVEDIDLLIRKAERCLEAGADTIMIDADDVCKYADSLRADIIAKVIGRLGIEKTMFEASDAKLVEWFIKRYGPNVNLYVDHSQIMDLECLRGRHLGKDHQSVLSSSYFLF,soluble
13,MTDKWLDTINWSADGLIPAIAQDKNNGKILMVAWMNREALKRTVESGEAVYWSRSRKKLWHKGEESGHTQKISAIHLDCDEDILLLSVEQKGGIACHTGRQSCFFRQLKNGEWVVTEPVIKDPSQIYTK,not soluble
